Assay results published in patent US8460910B2 (Illumina Cambridge Limited, priority 2003, dated 2013).
Numbering of substitutions follows the chain as printed. Numbers in names are those of the source. Each block holds one molecule with its values, some of them ahead of it.

Columns and labels:
[1] = tested on: cordycepin (3′deoxy adenosine triphosphate); conditions: Vent polymerase variant; cited from earlier work
[2] = tested on: 3′ modified nucleotide; test: Gel-based incorporation assay of Example 2, two cycles of enzymology on bead-bound 32P-labelled DNA template; format: biochemical; conditions: for Time to 50% product conversion on first cycle of incorporation / Time (mins) to 50% product conversion on second cycle of enzymology: 45° C., 50 mM Tris, pH 8, 4 mM MgSO4, 0.05 (v/v) Tween, 50 μg/ml enzyme, 2 μM 3′ modified nucleotide; for Time to 50% product conversion on first cycle of incorporation: first cycle (in parentheses); for incorporation of 3′ modified nucleotide analogues compared to 9° N DM (Y409V/A485L): region A variants, conditions of Example 2
Method: The mutant polymerases were assessed for their ability to incorporate a 3′ blocked nucleotide analogue using a gel-based assay as described in generic form in Example 1. The rates of incorporation of the modified nucleotides were compared to purified forms of related DNA polymerases in both a single round of incorporation and through two rounds of nucleotide incorporation. The DNA template that was used for these experiments was a commercially-synthesised biotinylated oligonucleotide.
The method for two cycles of incorporation involves the binding of the DNA primer-template to streptavidin-coated beads (Dynalbeads). These are prepared as follows: • Resuspend beads in storage pot by pipetting up and down Take 20 μL beads • Wash 3×200 μL TE buffer (10 mM Tris HCl pH 7.5, 1 mM EDTA) Add 50 μL B&W buffer (5 mM Tris HCl, pH 7.5; 1M NaCl, […]) • 25 μL H2O • 25 μL of ^32P-labelled biotin DNA template (final concentration of 100 nM)
The first cycle of enzymatic incorporation is performed on these beads as follows:
Incorporation mix 1 is added to the bead pellet from above.
Reactions are incubated at 45° C. for 15 minutes
The first cycle of enzymology is then deblocked by treatment with tri(carboxyethyl) phosphine (TCEP) as follows:
Add 65 μL TCEP (100 mM) in water and incubate at 65° C. for 15 minutes
After removal of the TE buffer, a second cycle of enzymatic incorporation is then performed by the addition of incorporation mix 2, as follows:
Take 5 μL samples out at ½, 1, 2, 4, 10, 30, 60 mins and add to gel loading buffer with EDTA.
Heat all samples to 95° C. for 10 mins and load 3 μl on a 12% acrylamide gel (Sambrook and Russell, 2001).
Time (mins) to 50% product conversion on second cycle of enzymology at 45° C., 50 mM Tris, pH 8, 4 mM MgSO4, 0.05 (v/v) Tween, 50 μg/ml enzyme, and 2 μM 3′ modified nucleotide. Time to 50% product conversion on first cycle of incorporation shown in parentheses. For other mutants the time to 50% conversion on the first cycle was not measured in these experiments

[3] = tested on: 3′ modified nucleotide; test: Single incorporation method (single cycle of nucleotide incorporation, gel read-out); format: biochemical; conditions: 45° C.; for incorporation of uracil nucleotide analogues with different 3′ modifications: 3′ O-allyl, 3′ S-methyl and 3′ O-azido methyl, single cycle, FIG. 3
Method: In order to determine whether the modified polymerases described in the previous examples have the capability to incorporate different nucleotide analogues that bear large modifications at the 3′ position of the sugar, three different uracil nucleotide analogues (3′ O-allyl, 3′ S-methyl, and 3′ O-azido methyl) were tested for their ability to be incorporated by two different […] (9° N ED variant polymerase, and 9° N YAV variant polymerase), compared to a control polymerase (9° N DM). A single cycle of nucleotide incorporation was performed at different time intervals using a ‘single incorporation’ method described below.
1. In a clean reaction tube, mix the following components: • 100 nM ^32P-labelled duplex DNA substrate • 50 μg/ml isolated DNA polymerase • 50 mM TrisHCl, pH 8 • 0.05% Tween20 • water to 47 μL
2. incubate the mixture at 45° C.
3. Add 4 mM MgSO4 and 2 μM 3′ modified nucleotide to the reaction mixture from 2, such that the total reaction volume is 50 μL
4. at various time intervals remove 5 μL aliquots from the reaction tube and mix with 5 μL gel loading buffer (described in Example 2)
5. Heat samples and load on acrylamide gels as described in Example 2.
To determine if the DNA polymerases described in previous examples were capable of incorporating 3′ modified nucleotide derivatives of A, G, C and T bases, and also of incorporating such nucleotide derivatives further modified by different fluorescent reporter groups, a single incorporation reaction (as described in Example 3) was performed with the following 3′ O-azido methyl nucleotide derivatives: […]

[4] = tested on: 3′ modified nucleotide analogues; test: Example 1 library screen (ffT-DIG filter assay) and primer extension assay against 9DM control; format: biochemical; conditions: variants mutated at regions A and B
Method: Mutations were introduced simultaneously at two regions of the 9° N DNA polymerase sequence, residues 408-410, and residues 484-486. A library of polymerase variants was screened for the incorporation of the 3′ modified nucleotide analogues.
The variant polymerases have increased activity towards the modified nucleotides utilised in the experiments. Thus, they appear to incorporate nucleotide analogues which have been modified at the 3′ sugar hydroxyl such that the substituent is larger in size than the naturally occurring 3′ hydroxyl group in primer extension assays faster than previously available polymerases which can act as a control polymerase, such as the 9° N (-exo) Y409V/A485L double mutant (designated 9DM herein).
There are many different methods for screening for nucleotide incorporation that are variations on the method of Sagner et al. (1991). One suitable method is described herein for the incorporation of 3′ modified nucleotide analogues that uses a digoxigenin-3-O-methyl-carbonyl-e-aminocaproic acid (DIG) derivative of the relevant nucleotide analogue (ffT-DIG)
Remove tape and 3 MM paper and place filter back in petri dish. Add incorporation solution pre-warmed to temperature that incorporation will be tested at. […]
This is a generalised method. […] Also, have ready eppendorf containing 1 μl CHASE mix for each reaction. […]

Molecule: Y412V: Vent DNA polymerase with mutation Y412V (Gardner and Jack 1999)
rate enhancement with cordycepin [1]: 2 fold

B1: YAV: 9° N polymerase (exo-) mutant, motif A region YAV, also A485L; SEQ ID NO: 22 (protein)
chain: MILDTDYITENGKPVIRVFKKENGEFKIEYDRTFEPYFYALLKDDSAIEDVKKVTAKRHGTVVKVKRAEKVQKKFLGRPIEVWKLYFNHPQDVPAIRDRIRAHPAVVDIYEYDIPFAKRYLIDKGLIPMEGDEELTMLAFAIATLYHEGEEFGTGPILMISYADGSEARVITWKKIDLPYVDVVSTEKEMIKRFLRVVREKDPDVLITYNGDNFDFAYLKKRCEELGIKFTLGRDGSEPKIQRMGDRFAVEVKGRIHFDLYPVIRRTINLPTYTLEAVYEAVFGKPKEKVYAEEIAQAWESGEGLERVARYSMEDAKVTYELGREFFPMEAQLSRLIGQSLWDVSRSSTGNLVEWFLLRKAYKRNELAPNKPDERELARRRGGYAGGYVKEPERGLWDNIVYLDFRSYAVSIIITHNVSPDTLNREGCKEYDVAPEVGHKFCKDFPGFIPSLLGDLLEERQKIKRKMKATVDPLEKKLLDYRQRLIKILANSFYGYYGYAKARWYCKECAESVTAWGREYIEMVIRELEEKFGFKVLYADTDGLHATIPGADAETVKKKAKEFLKYINPKLPGLLELEYEGFYVRGFFVTKKKYAVIDEEGKITTRGLEIVRRDWSEIAKETQARVLEAILKHGDVEEAVRIVKEVTEKLSKYEVPPEKLVIHEQITRDLRDYKATGPHVAVAKRLAARGVKIRPGTVISYIVLKGSGRIGDRAIPADEFDPTKHRYDAEYYIENQVLPAVERILKAFGYRKEDLRYQKTKQVGLGAWLKVKGKK
modifications: 9oN polymerase variant (exo-) with L408Y/Y409A/P410V mutations
Time to 50% product conversion on first cycle of incorporation [2]: min (5 sec) | Time (mins) to 50% product conversion on second cycle of enzymology [2]: 1.2 min | incorporation of 3′ modified nucleotide analogues compared to 9° N DM (Y409V/A485L) [2]: best incorporation rate | incorporation of uracil nucleotide analogues with different 3′ modifications ([3]; 2 μM nucleotide): incorporated efficiently | concentration of 3′ blocked nucleotide at which incorporation can be measured (as low as) ([3]; first cycle, single cycle experiment): 50 nM

B2: CST: 9° N DM-derived polymerase with amino acids 408-410 CST (protein, UniProt Q56366 1-775, looked up, variant D141A E143A L408C Y409S P410T A485L)
DNA polymerase: B1 chain with Y408C, A409S, V410T
Time (mins) to 50% product conversion on second cycle of enzymology [2]: 19.5 min

B3: VAL (ED polymerase): 9° N DM derivative with L408V; V409A; P410L (motif A VAL) plus A485L; SEQ ID NO: 18 (protein)
chain: B1 chain with Y408V, V410L
modifications: 9oN polymerase variant (exo-) with L408V/Y409A/P410L and A485L mutations
rate of incorporation of the modified nucleotides compared to the original mutant bearing changes at regions A and B (2E) [2]: enhanced rate of incorporation | Time to 50% product conversion on first cycle of incorporation [2]: min (16 sec) | Time (mins) to 50% product conversion on second cycle of enzymology [2]: 5.2 min | incorporation of 3′ modified nucleotide analogues compared to 9° N DM (Y409V/A485L) [2]: improved incorporation | incorporation of uracil nucleotide analogues with different 3′ modifications ([3]; 2 μM nucleotide): incorporated efficiently | substrate conversion ([3]; each 3′ O-azido methyl nucleotide derivative of Table IV (A, G, C, T; different dyes), 2 μM nucleotide, within 3 minutes): greater than 90%

B4: AAA: 9° N DM-derived polymerase with amino acids 408-410 AAA (protein, UniProt Q56366 1-775, looked up, variant D141A E143A L408A Y409A P410A A485L)
DNA polymerase: B1 chain with Y408A, V410A
Time (mins) to 50% product conversion on second cycle of enzymology [2]: 6.9 min

incorporation of 3′ modified nucleotide analogues compared to control polymerase (9DM) [4]: improved incorporation
B5: 2E: L408V/Y409A/P410L R484I/A485S/I486N 9° N mutant; SEQ ID NO: 12 (protein)
chain: B1 chain with Y408V, V410L, R484I, L485S, I486N
modifications: 9oN polymerase variant (exo-) with L408V/Y409A/P410L R484I/A485S/I486N mutations

B6: YST: 9° N DM-derived polymerase with amino acids 408-410 YST (protein, UniProt Q56366 1-775, looked up, variant D141A E143A L408Y Y409S P410T A485L)
DNA polymerase: B1 chain with A409S, V410T
Time (mins) to 50% product conversion on second cycle of enzymology [2]: 2.1 min
